From the supplement of paper PMC12042874 come the findings set out here.

± gives the uncertainty stated by the source.

The series can be described thus: amyloid nucleation score (Sup35N fusion, yeast selection) (log enrichment); library NNK3; higher = more nucleation; inactive = no reads after selection. In a few lines: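 Nucleation score is defined as the DiMSum log enrichment of output over input reads, with centring on the mode score of non-aggregating sequences. A minimum of 100 input reads was required for each sequence. Reads came from Illumina sequencing of plasmid inserts from psi-negative yeast expressing Sup35N fused to peptides of 20 random codons, induced with 100 μM copper sulfate for 24 hours and grown 7 days at 30°C on medium lacking adenine and uracil.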
In the case of PRISQEDVFARTARVDLGLQ, the amyloid nucleation score result is “inactive”.
The result for RLANKFSMTSGT reads “inactive”; that for NASIRDGNMTFFSQAVTRLA, “inactive”.
As for LEMTSCTNLLHKRELVSWHR, the amyloid nucleation score entry is “inactive”.
For SYFVWVNV, the amyloid nucleation score entry is “inactive”.
LGFLNWSRQGGV yielded an amyloid nucleation score of 0.947 ± 0.25.
Turning to RFTYGDRCMKMRMPNFETAH, the amyloid nucleation score entry was “inactive”.
CDVSGSCPGRSPARLKEGSR: the amyloid nucleation score result is “inactive”.
For the substance AGFLRDLMCDHLEDDGVPAV, the amyloid nucleation score result was “inactive”.
With NVFNFRVDSSDHPPVSAWWD, the amyloid nucleation score entry was “inactive”.
The substance LVFTWYFMCNVMGIFDRGTR gave an amyloid nucleation score of 2.06 ± 0.094.
For SFCECFQSSKSCKIWTVWIV, the amyloid nucleation score entry was “inactive”.
As to MYDLDHSFCTLLTEVRALMK, the amyloid nucleation score is -0.396 ± 1.4.
The value for QYGIKGRRVKCWLCWHGDVE was “inactive”; that for QTRVHLFAREPPCFTEFNER was “inactive”.
VRLSKHMLVIDRGLKQLVIY: the amyloid nucleation score result is “inactive”.
The result for MLDCYWPFPNISIRIWTEWV reads “inactive”.
With LCSFPKH, the amyloid nucleation score result is “inactive”.
As to GVGGPDGCTGNDTFMRQYTN, the amyloid nucleation score entry was “inactive”.
As to SSYLMFDMLMRYYLNYFMCR, the amyloid nucleation score result was “inactive”.
With IMRGITEGWEPLVVES, the amyloid nucleation score result is “inactive”.
For GCFLNNMLIGF, the amyloid nucleation score entry is “inactive”.
Turning to PVTVFWVTMTSWYVNIRG, the amyloid nucleation score entry is “inactive”.
Consider EFVSDLDTDEVGLHCFCWCP, for which the amyloid nucleation score result is “inactive”.
Take RSLYWIWWDDSKSNE: the amyloid nucleation score entry is “inactive”.
The value for DFNSVVLPNGV was “inactive”; that for LSWRTPISAMFDSWACGGGR was “inactive”; that for FLVNDYFV was “inactive”.
The result for LPDEEHVRYVCYLYDM reads “inactive”; that for WDRSMMIAIDD, “inactive”.
Regarding LNNFMWKHVMGYPYVAWLAF, the amyloid nucleation score result is “inactive”.
Regarding CRRFELS, the amyloid nucleation score is -1.04 ± 1.9.
SKCIKLFNFNVSCFQTSSLL: the amyloid nucleation score was determined as 2.29 ± 0.092.
Take LKSMLLSMRSIIEYCQQMVG: the amyloid nucleation score result was “inactive”.
With PFFCTMITYNGLVYDIFWRG, the amyloid nucleation score result is “inactive”.
DVLRVPMNEVTNWSIPPY: the amyloid nucleation score entry was “inactive”.
For the substance DFDILGSDHISWWYGRFDKT, the amyloid nucleation score result was “inactive”.
Regarding FYVNPITEGMA, the amyloid nucleation score entry is “inactive”.
For SNAFSGLRQLPPSNDSLCKG, the amyloid nucleation score entry was “inactive”.
With PFNRVVVHSDAARGCRPCRP, the amyloid nucleation score entry is “inactive”.
In the case of NMFRRPTVCTVQEQVTEMRV, the amyloid nucleation score entry is “inactive”.
The result for YCTRGNSTNLEYELECLVIF reads “inactive”; that for LFIECIRSGDDGCILWETWH, “inactive”.
On to LVCSLLQASNWCVISSS, for which the amyloid nucleation score worked out at 0.753 ± 0.11.
Take KAFFESMFWV: the amyloid nucleation score result is “inactive”.
On to WYPLGRPRVLINYETPTSVM, for which the amyloid nucleation score entry is “inactive”.
With SGMLIVLRSWLDRDSICEGR, the amyloid nucleation score entry is “inactive”.
Regarding PLRPKLFFERNGSGYRQNRA, the amyloid nucleation score result is “inactive”.
Consider VKAVLY, for which the amyloid nucleation score entry is “inactive”.
In the case of HWTLKMTVQHVFMLGASCRY, the amyloid nucleation score result is “inactive”.
The value for VWNFFSMGSFSVDC was 1.28 ± 0.087; that for FVVIAYTEDTGDYRMVLTQW was “inactive”; that for HDRTVSLQYRVNTRVRLASW was “inactive”.
The result for SGVGCKSLFWSSVAYMSIWG reads “inactive”; that for EVPTRLDKMNENCNREDSAP, “inactive”.
The value for ACLCNNCLSLNPTWSCFLCL was 2.41 ± 0.087; that for CSFIAGAPTSFWVVGLCWKY was -0.031 ± 0.72; that for TASWVLFVAVVCICLTLFSY was 0.85 ± 0.3.
Consider WRGKKSWAWPDQCLI, for which the amyloid nucleation score entry was “inactive”.
Take CSIGRSTVDVRWGEGLWNRL: the amyloid nucleation score result is “inactive”.
For IADFNSL, the amyloid nucleation score result was “inactive”.
The value for SVRRLGGLLLYCNHFMFD was “inactive”.
HVNMSNIVLVLFSNSFNMHE had an amyloid nucleation score of 1.75 ± 0.082.
Regarding ALYNCSCQDNGVQFNK, the amyloid nucleation score entry was “inactive”.
The result for RFQFIEFSSTVSSGGWTFFI reads -0.165 ± 0.39; that for ILRNRNDIQNAYCRNKY, “inactive”.
In the case of VLLFC, the amyloid nucleation score result is “inactive”.
In the case of TLDGLLRASMYSLIYWLVLM, the amyloid nucleation score result was “inactive”.
Regarding SLCVVGP, the amyloid nucleation score is -0.107 ± 0.6.
As to LLGTEIWGCRRISHSGVMRW, the amyloid nucleation score is -0.009 ± 0.43.
In turn, AFYDNWKGNG gave an amyloid nucleation score of 0.141 ± 0.35.
Consider SCVDLPWQMRLRHRKCQFDG, for which the amyloid nucleation score result is “inactive”.
Regarding RLHLRKYFFETAHWICMNDG, the amyloid nucleation score result is “inactive”.
Regarding NLTFYMYIELVDLRGNAE, the amyloid nucleation score worked out at 2.29 ± 0.056.
For EYMCACSLEILVL, the amyloid nucleation score result was “inactive”.
Turning to DVCEGEIYDPDSLKWFYQFL, the amyloid nucleation score entry was “inactive”.
The value for SIKLGILEMCKA was “inactive”; that for DFNLNEVDTDMGFSLSESL was “inactive”; that for MLNNNRWVGVFRLCWNVVWS was “inactive”.
The value for CSIARLFWFFPVMPSCIG was -0.236 ± 1.1.
As to DGDIVDSG, the amyloid nucleation score is -0.616 ± 0.8.
YSSVILVY had an amyloid nucleation score of 0.156 ± 0.48.
In the case of FLVTYKISWRYKSQQLCSYY, the amyloid nucleation score entry was “inactive”.
As for ASNYYKCCCSNWLCCLMSDR, the amyloid nucleation score came out at 2.91 ± 0.066.
As for SSNNQMWTELITYCLRCAWV, the amyloid nucleation score entry was “inactive”.
The value for LFNSRMCMPRFASASNLACL was “inactive”; that for MLDYVF was “inactive”; that for YVFGNWLLCFEHTKMH was 1.1 ± 0.14.
On to MACGGIKTIDTWNGDKFNVQ, for which the amyloid nucleation score entry is “inactive”.
YTFRMYGLMDNLHCAPWF: the amyloid nucleation score result was “inactive”.
As for FLTRFRDPT, the amyloid nucleation score was -0.589 ± 0.9.
IWVWVWSYWGRNFLSLVRFV: the amyloid nucleation score result is “inactive”.
Regarding HDDSTSNNSPVSRKPLSPWS, the amyloid nucleation score result was “inactive”.
Regarding HFILVNIAFLVTDPHWLVRV, the amyloid nucleation score result was “inactive”.
With RKDYGMLYFFLSSRKCTHAI, the amyloid nucleation score entry was “inactive”.
For the substance CNCVRWWRSSSTTNG, the amyloid nucleation score result was “inactive”.
